Assay results published in patent publication US20130316376A1 (SPIBER TECHNOLOGIES, published 2013).

B1: His6AbdQGRep4CT (designed binder)
chain: MGSSGHHHHHHMLAEAKVLANRELDKYGVSDYYKNLINNAKTVEGVKALIDEILAALPLEALFQGPNSGQGGYGGLGQGGYGQGAGSSAAAAAAAAAAAAGGQGGQGQGGYGQGSGGSAAAAAAAAAAAAAAAGRGQGGYGQGSGGNAAAAAAAAAAAAAAAGQGGQGGYGRQSQGAGSAAAAAAAAAAAAAAGSGQGGYGGQGQGGYGQSSASASAAASAASTVANSVSRLSSPSAVSRVSSAVSSLVSNGQVNMAALPNIISNISSSVSASAPGASGCEVIVQALLEVITALVQIVSSSSVGYINPSAVNQITNVVANAMAQVMG
notes: tested as films and fibers; also called Abd-Rep4CT; HisAbdQG4RepCT
B2: Rep4CT (Protease 3C cleavage product of His6ZQGRep4CT) (other)
chain: GQGGYGGLGQGGYGQGAGSSAAAAAAAAAAAAGGQGGQGQGGYGQGSGGSAAAAAAAAAAAAAAAGRGQGGYGQGSGGNAAAAAAAAAAAAAAAGQGGQGGYGRQSQGAGSAAAAAAAAAAAAAAGSGQGGYGGQGQGGYGQSSASASAAASAASTVANSVSRLSSPSAVSRVSSAVSSLVSNGQVNMAALPNIISNISSSVSASAPGASGCEVIVQALLEVITALVQIVSSSSVGYINPSAVNQITNVVANAMAQVMG
notes: made by cleaving His6ZQGRep4CT; also called GP-Rep4CT

Tests used:
[1] = molecular target: T1, albumin from human blood plasma (human, UniProt P02768 25-609); assay: films incubated with human blood plasma, low pH elution, non-reducing SDS-PAGE
T1 construct: mature; Native plasma protein; also called human albumin

[2] = molecular target: T2, albumin from rabbit serum (rabbit, UniProt P49065 25-608); assay: fibers incubated with rabbit serum, low pH elution, non-reducing SDS-PAGE
T2 construct: mature; Native serum protein; the form follows from the source (serum); also called albumin (~70 kDa)
T2 sequence (P49065 25-608): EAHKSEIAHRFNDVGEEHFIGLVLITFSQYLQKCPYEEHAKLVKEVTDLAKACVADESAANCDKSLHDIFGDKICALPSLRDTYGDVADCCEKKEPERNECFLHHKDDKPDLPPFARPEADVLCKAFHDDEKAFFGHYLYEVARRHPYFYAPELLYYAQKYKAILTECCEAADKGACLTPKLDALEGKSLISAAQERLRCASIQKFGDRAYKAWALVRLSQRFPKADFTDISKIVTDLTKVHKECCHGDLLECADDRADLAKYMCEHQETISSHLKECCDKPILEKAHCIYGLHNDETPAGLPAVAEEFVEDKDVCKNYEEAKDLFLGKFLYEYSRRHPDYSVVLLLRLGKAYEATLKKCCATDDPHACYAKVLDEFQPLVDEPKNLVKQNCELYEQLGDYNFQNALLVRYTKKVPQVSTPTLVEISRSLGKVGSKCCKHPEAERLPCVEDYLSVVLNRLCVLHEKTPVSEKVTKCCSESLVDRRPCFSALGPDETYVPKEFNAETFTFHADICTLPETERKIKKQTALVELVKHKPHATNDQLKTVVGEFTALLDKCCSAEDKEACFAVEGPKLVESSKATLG

| Binder | binding result [1] | binding result [2] |
| --- | --- | --- |
| B1 | binds | – |
| B2 | – | binds |
